Like-named read-outs stand apart in the source and are kept apart here.
Assays:
ERK [1] = assay type: cell-based, murine; settings: GDNF 200 ng/ml; vehicle 0.56±0.13
RET = RET (Homo sapiens, UniProt P07949); assay: RET phosphorylation assay, GFP transfected MG87RET cells; assay type: cell-based; settings: GDNF in the absence of GFRα1
6-OHDA lesioned rats [2] = assay: Optical density of TH-ir fibers in the dorsal striatum; settings: GDNF 3 μg/24 h; 12 weeks post lesion
6-OHDA lesioned rats [3] = assay: Optical density of DAT-ir fibers in the dorsal striatum; settings: GDNF 3 μg/24 h
AKT [4] = assay type: cell-based, murine; settings: GDNF 200 ng/ml; vehicle 0.91±0.20
6-OHDA lesioned rats [5] = assay: TH-ir cell bodies in the SNpc, CNN algorithm; assay type: in vivo, rat; settings: GDNF 3 μg/24 h
6-OHDA lesioned rats [6] = assay: TH-ir neurite number in the striatum; assay type: in vivo, rat; settings: BT44 0.1 and 0.3 μg/24 h, GDNF 3 μg/24 h; newly developed algorithm
[7] = test system: wild-type midbrain dopamine neurons (TH-ir cells); assay: Survival assay for primary dopamine neurons, wild-type; assay type: cell-based, mouse; settings: GDNF 10 ng/ml ([…]), 5 days in vitro; vehicle 226.3±6.6
6-OHDA lesioned rats [8] = assay: Amphetamine-induced rotational assay, unilateral 6-OHDA lesion; assay type: in vivo, rat; settings: GDNF 3 μg/24 h intrastriatal 14 days; 12 weeks post lesion
[9] = test system: RET knockout midbrain dopamine neurons (TH-ir cells); assay: Survival assay for primary dopamine neurons, RET knockout; assay type: cell-based, mouse; settings: GDNF 10 ng/ml (≃[…]), 5th day in vitro
GFRα1-RET = GFRα1-RET (Homo sapiens, UniProt P07949); assay: RET phosphorylation assay; assay type: cell-based; settings: GDNF 200 ng/ml, 15 min; vehicle 0.66±0.22
Sequence of GFRα1-RET (P07949 29-1114): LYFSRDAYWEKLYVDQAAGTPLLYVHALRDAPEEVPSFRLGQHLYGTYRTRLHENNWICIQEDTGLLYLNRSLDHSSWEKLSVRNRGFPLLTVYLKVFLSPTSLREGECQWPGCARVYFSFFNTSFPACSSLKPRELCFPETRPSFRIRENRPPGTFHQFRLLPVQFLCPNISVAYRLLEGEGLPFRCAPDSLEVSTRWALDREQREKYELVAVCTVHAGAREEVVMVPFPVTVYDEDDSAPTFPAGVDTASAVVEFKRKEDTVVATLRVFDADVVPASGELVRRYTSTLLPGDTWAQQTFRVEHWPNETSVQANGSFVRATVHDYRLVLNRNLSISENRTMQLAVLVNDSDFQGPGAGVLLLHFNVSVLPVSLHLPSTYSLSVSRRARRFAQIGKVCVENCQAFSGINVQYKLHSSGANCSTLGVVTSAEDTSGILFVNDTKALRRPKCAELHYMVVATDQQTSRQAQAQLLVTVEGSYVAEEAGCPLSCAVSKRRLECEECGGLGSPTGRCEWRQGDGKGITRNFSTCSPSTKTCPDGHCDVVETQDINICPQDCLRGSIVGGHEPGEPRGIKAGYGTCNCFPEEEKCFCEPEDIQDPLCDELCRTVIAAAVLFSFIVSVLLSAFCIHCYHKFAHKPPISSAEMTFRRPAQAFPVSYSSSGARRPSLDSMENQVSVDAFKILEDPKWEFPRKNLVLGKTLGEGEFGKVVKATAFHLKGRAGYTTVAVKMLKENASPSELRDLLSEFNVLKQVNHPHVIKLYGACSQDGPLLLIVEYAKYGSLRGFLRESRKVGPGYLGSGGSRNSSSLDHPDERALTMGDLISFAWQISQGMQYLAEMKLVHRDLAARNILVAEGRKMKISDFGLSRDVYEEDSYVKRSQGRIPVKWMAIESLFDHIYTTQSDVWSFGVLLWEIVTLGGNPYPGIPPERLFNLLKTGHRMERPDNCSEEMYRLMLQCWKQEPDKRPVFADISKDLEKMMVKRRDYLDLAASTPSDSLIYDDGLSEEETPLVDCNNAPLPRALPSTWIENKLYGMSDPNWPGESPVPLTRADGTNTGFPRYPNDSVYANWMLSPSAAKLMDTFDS
Sequence of GFRα1-RET (P56159 25-429 partner limits assumed): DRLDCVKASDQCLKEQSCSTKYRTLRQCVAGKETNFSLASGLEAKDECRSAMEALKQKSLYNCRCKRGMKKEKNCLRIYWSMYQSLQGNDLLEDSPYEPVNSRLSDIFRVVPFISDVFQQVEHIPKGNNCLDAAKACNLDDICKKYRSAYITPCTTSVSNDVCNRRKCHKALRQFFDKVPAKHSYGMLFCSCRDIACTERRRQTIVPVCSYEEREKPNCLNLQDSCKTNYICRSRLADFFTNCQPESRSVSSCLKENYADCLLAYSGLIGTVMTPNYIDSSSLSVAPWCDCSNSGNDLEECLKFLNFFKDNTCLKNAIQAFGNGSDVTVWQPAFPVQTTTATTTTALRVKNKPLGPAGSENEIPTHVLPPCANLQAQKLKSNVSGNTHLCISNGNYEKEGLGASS

dopamine neurons = settings: cited from earlier work
6-OHDA lesioned rats [10] = assay: DAT-ir cell bodies in the SNpc; assay type: in vivo, rat; settings: GDNF 3 μg/24 h
[11] = test system: midbrain dopamine neurons exposed to MPP+; assay: Survival of MPP+-challenged dopamine neurons; assay type: cell-based, mouse; settings: GDNF 10 ng/ml (≃[…]) with MPP+ 2 μM, 48 hours; vehicle 267.7±20.4
AKT [12] = assay type: cell-based, murine; settings: NRTN 200 ng/ml; vehicle 0.63±0.02
GFRα2-RET = GFRα2-RET (Homo sapiens, UniProt P07949); assay: RET phosphorylation assay, GFRα2 transfected MG87RET cells; assay type: cell-based; settings: NRTN 200 ng/ml, 15 min; vehicle 0.86±0.15
Sequence of GFRα2-RET (P07949 29-1114): as the sequence (P07949 29-1114) above

ERK [13] = assay type: cell-based, murine; settings: NRTN 200 ng/ml; vehicle 0.18±0.04
TrkB = TrkB (Homo sapiens, UniProt Q16620); assay: Luciferase reporter assay in MG87 cells expressing TrkB; assay type: cell-based; settings: BDNF 100 ng/ml, overnight
Sequence of TrkB (Q16620 32-822, species assumed): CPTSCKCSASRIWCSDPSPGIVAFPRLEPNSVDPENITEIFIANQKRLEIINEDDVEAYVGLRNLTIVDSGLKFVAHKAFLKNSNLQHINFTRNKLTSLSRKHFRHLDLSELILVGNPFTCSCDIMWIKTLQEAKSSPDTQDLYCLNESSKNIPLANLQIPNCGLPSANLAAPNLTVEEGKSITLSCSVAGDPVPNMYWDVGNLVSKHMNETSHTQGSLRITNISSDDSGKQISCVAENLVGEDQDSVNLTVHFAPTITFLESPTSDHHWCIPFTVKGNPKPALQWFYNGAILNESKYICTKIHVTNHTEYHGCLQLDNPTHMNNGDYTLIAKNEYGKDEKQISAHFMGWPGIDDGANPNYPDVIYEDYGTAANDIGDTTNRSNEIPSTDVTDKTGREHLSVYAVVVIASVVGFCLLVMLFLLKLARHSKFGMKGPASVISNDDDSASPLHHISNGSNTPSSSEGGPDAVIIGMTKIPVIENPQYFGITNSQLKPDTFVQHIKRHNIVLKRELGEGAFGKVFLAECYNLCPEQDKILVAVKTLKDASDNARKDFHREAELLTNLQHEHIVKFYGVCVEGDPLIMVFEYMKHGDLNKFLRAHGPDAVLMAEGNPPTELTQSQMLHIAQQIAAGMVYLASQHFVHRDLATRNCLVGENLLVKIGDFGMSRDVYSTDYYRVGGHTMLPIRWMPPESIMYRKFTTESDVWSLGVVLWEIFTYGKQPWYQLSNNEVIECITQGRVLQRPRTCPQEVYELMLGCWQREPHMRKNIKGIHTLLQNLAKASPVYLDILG

Sequence of RET (P07949 29-1114): as the sequence (P07949 29-1114) above

B1: GDNF: Human recombinant glial cell line-derived neurotrophic factor (protein, UniProt P39905 78-211, looked up)
Glial cell line-derived …: SPDKQMAVLPRRERNRQAAAANPENSRGKGRRGQRGKNRGCVLTAIHLNVTDLGLGYETKEELIFRYCSGSCDAAETTYDKILKNLSRNRRLVSDKVGQACCRPIAFDDDLSFLDDNLVYHILRKHSAKRCGCI
- level of ERK phosphorylation (pERK normalized to GAPDH) (ERK [1]): 2.76±0.37
- RET activation (RET): did not activate RET
- TH-ir fiber density relative to PBS treated rats (6-OHDA lesioned rats [2]): 2.6 times
- density of TH-ir fibers in the striatum (6-OHDA lesioned rats [2]): 15.8±1.6 % of the intact side
- DAT-ir fiber density relative to PBS (6-OHDA lesioned rats [3]): 9.9 times
- density of DAT-ir fibers in the striatum (6-OHDA lesioned rats [3]; 12 weeks post lesion): 9.9±1.7 % of the intact side
- level of AKT phosphorylation (pAKT normalized to GAPDH) (AKT [4]): 4.77±0.43
- number of TH-ir cell bodies relative to PBS (6-OHDA lesioned rats [5]): 2.5 times
- number of TH-ir cell bodies relative to PG (6-OHDA lesioned rats [5]): 2.3 times
- number of TH-ir cell bodies in the SNpc, Lesioned/Intact side (%) (6-OHDA lesioned rats [5]; 12 weeks post lesion, PBS 11.5±0.9, PG 12.6±0.9): 29.1±2.8 % of the intact side
- number of TH-ir fibers (neurite number) in the striatum (6-OHDA lesioned rats [6]): No statistically significant differences
- number of TH-ir cells [7]: 384.0±35.2
- number of net ipsilateral turns (120 min) (6-OHDA lesioned rats [8]): 149.1±47.9
- survival promoting effect [9]: did not observe survival promoting effect
- level of RET phosphorylation (pRET band normalized to RET) (GFRα1-RET): 2.59±0.33
- GDNF concentration at which effects on neuronal survival are detected (dopamine neurons; ref 52): 1 ng/mL
- GDNF concentration at which somewhat increase in survival is already detectable (dopamine neurons; ref 52): 0.1 ng/mL
- GDNF concentration at which effects on neuronal survival are detected (dopamine neurons; ref 81): 5 ng/mL
- number of DAT-ir cell bodies relative to PBS (6-OHDA lesioned rats [10]): 2.2 times
- number of DAT-ir cell bodies in the SNpc (6-OHDA lesioned rats [10]; 12 weeks post lesion, PBS 9.5±1.4, PG 11.6±1.3): 20.7±2.9 % of the intact side
- number of TH-ir neurons [11]: 333.0±12.6

B2: NRTN: human recombinant neurturin (protein, UniProt Q99748 96-197, looked up)
Neurturin: ARLGARPCGLRELEVRVSELGLGYASDETVLFRYCAGACEAAARVYDLGLRRLRQRRRLRRERVRAQPCCRPTAYEDEVSFLDAHSRYHTVHELSARECACV
- level of AKT phosphorylation (pAKT normalized to GAPDH) (AKT [12]): 1.72±0.13
- level of RET phosphorylation (pRET band normalized to RET) (GFRα2-RET): 3.34±0.41
- level of ERK phosphorylation (pERK normalized to GAPDH) (ERK [13]): 1.14±0.15

B3: BDNF: brain-derived neurotrophic factor (protein, UniProt P23560 19-247, looked up)
Neurotrophic factor BDNF …: APMKEANIRGQGGLAYPGVRTHGTLESVNGPKAGSRGLTSLADTFEHVIEELLDEDQKVRPNEENNKDADLYTSRVMLSSQVPLEPPLLFLLEEYKNYLDAANMSMRVRRHSDPARRGELSVCDSISEWVTAADKKTAVDMSGGTVTVLEKVPVSKGQLKQYFYETKCNPMGYTKEGCRGIDKRHWNSQCRTTQSYVRALTMDSKKRIGWRFIRIDTSCVCTLTIKRGR
- luciferase activity in reporter cells expressing TrkB (TrkB): increased the luciferase activity
